The data set deals with Escherichia coli TOP10. The data set is described as follows: shrunken log2 fold change of peptide-encoding DNA abundance (4.5 h post-induction vs induction); higher = less antimicrobial activity (less host growth inhibition). Particulars: time post-induction: 4.5 h; library: site-saturation at positions 5, 18, 19, 20.
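Further: peptides expressed intracellularly from a pBAD plasmid library in pooled LB shake-flask culture, induced with 0.3% L-arabinose, DNA abundance read by NGS, three biological replicates, DESeq2 with apeglm shrinkage.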

Regarding RRIRWRPPRLPRPRPRPDETPRP, the “shrunken log2 fold change” value was 0.0169.
As to RRIRFRPPRLPRPRPRPSRVPRP, the “shrunken log2 fold change” value was 0.0914.
To RRIRTRPPRLPRPRPRPHTWPRP belongs -0.281.
Next, RRIRDRPPRLPRPRPRPTAFPRP: 0.231.
Next, RRIRSRPPRLPRPRPRPCLIPRP: -0.197; RRIRDRPPRLPRPRPRPDMHPRP: 0.633.
Regarding RRIRHRPPRLPRPRPRPGIDPRP, the “shrunken log2 fold change” value is -0.0302.
With RRIRERPPRLPRPRPRPKVMPRP, the “shrunken log2 fold change” value is 0.0306.
In the case of RRIRPRPPRLPRPRPRPNDWPRP, the “shrunken log2 fold change” value stood at 0.0287.
Next, RRIRDRPPRLPRPRPRPKFCPRP: -0.0512; RRIRFRPPRLPRPRPRPVIKPRP: -0.339.
To RRIRMRPPRLPRPRPRPHNDPRP belongs 0.00915; to RRIRWRPPRLPRPRPRPADHPRP, 0.193.
On to RRIRLRPPRLPRPRPRPFAAPRP, for which the “shrunken log2 fold change” value came to 0.281.
Regarding RRIRIRPPRLPRPRPRPVMGPRP, the “shrunken log2 fold change” value was -0.718.
To RRIRIRPPRLPRPRPRPWFYPRP belongs -0.161; to RRIRMRPPRLPRPRPRPNINPRP, -0.356.
To RRIRDRPPRLPRPRPRPWGLPRP belongs 0.0419; to RRIRCRPPRLPRPRPRPNINPRP, -0.181.
Next, RRIRRRPPRLPRPRPRPMDGPRP: 0.0167.
With RRIRPRPPRLPRPRPRPKWAPRP, the “shrunken log2 fold change” value turned out to be 0.0222.
Turning to RRIRERPPRLPRPRPRPQMRPRP, the “shrunken log2 fold change” value amounted to 0.0123.
Next, RRIRARPPRLPRPRPRPPADPRP: 1.42; RRIRMRPPRLPRPRPRPGDSPRP: 0.557.
To RRIRGRPPRLPRPRPRPRWTPRP belongs 0.43.
To RRIRRRPPRLPRPRPRPPYCPRP belongs 0.256.
On to RRIRHRPPRLPRPRPRPAIDPRP, for which the “shrunken log2 fold change” value was 0.178.
Next, RRIRERPPRLPRPRPRPGRKPRP: -0.12.
On to RRIRERPPRLPRPRPRPEGAPRP, for which the “shrunken log2 fold change” value came to 0.592.
Turning to RRIRKRPPRLPRPRPRPLVNPRP, the “shrunken log2 fold change” value was -0.0445.
To RRIRGRPPRLPRPRPRPLMHPRP belongs 0.592.
In the case of RRIRRRPPRLPRPRPRPFYNPRP, the “shrunken log2 fold change” value is -0.139.
Take RRIRQRPPRLPRPRPRPQDMPRP: the “shrunken log2 fold change” value amounted to 0.0179.
To RRIRRRPPRLPRPRPRPIKMPRP belongs -0.0923; to RRIRNRPPRLPRPRPRPHHDPRP, -1.01.
On to RRIRWRPPRLPRPRPRPNGMPRP, for which the “shrunken log2 fold change” value was -0.0595.
Next, RRIRDRPPRLPRPRPRPVLFPRP: 0.13.
To RRIRLRPPRLPRPRPRPQQEPRP belongs 0.0119; to RRIRLRPPRLPRPRPRPVYSPRP, -0.881.
Next, RRIRKRPPRLPRPRPRPGKCPRP: 0.0131.
In the case of RRIRLRPPRLPRPRPRPTHHPRP, the “shrunken log2 fold change” value came out at 0.239.
Next, RRIRFRPPRLPRPRPRPGRDPRP: 0.0984; RRIRDRPPRLPRPRPRPHTVPRP: -0.0379; RRIRVRPPRLPRPRPRPSDQPRP: -0.669.
Turning to RRIRCRPPRLPRPRPRPCTWPRP, the “shrunken log2 fold change” value was -0.0985.
Next, RRIRERPPRLPRPRPRPRPTPRP: 0.35; RRIRDRPPRLPRPRPRPSNHPRP: -0.548.
To RRIRHRPPRLPRPRPRPYQGPRP belongs -0.00674; to RRIRYRPPRLPRPRPRPLMTPRP, -0.181.
To RRIRKRPPRLPRPRPRPHDNPRP belongs 0.029.
For RRIRARPPRLPRPRPRPMRDPRP, the “shrunken log2 fold change” value stood at 1.04.
For the sequence RRIRRRPPRLPRPRPRPLRQPRP, the “shrunken log2 fold change” value worked out at 1.04.
As for RRIRWRPPRLPRPRPRPAHDPRP, the “shrunken log2 fold change” value was determined as 0.0987.
With RRIRWRPPRLPRPRPRPNMQPRP, the “shrunken log2 fold change” value was -0.0262.
On to RRIRGRPPRLPRPRPRPRERPRP, for which the “shrunken log2 fold change” value was found to be 0.789.
To RRIRQRPPRLPRPRPRPQAKPRP belongs 0.0346.
To RRIRPRPPRLPRPRPRPQQKPRP belongs 0.433.
Next, RRIRGRPPRLPRPRPRPWNSPRP: -0.00154; RRIRRRPPRLPRPRPRPRFFPRP: 0.507.
With RRIRIRPPRLPRPRPRPRIQPRP, the “shrunken log2 fold change” value was -0.275.
Next, RRIRIRPPRLPRPRPRPREQPRP: 0.198; RRIRQRPPRLPRPRPRPFHCPRP: -0.192; RRIRPRPPRLPRPRPRPCMWPRP: 0.0459.
To RRIRNRPPRLPRPRPRPMCSPRP belongs -0.0636; to RRIRNRPPRLPRPRPRPEDCPRP, -0.00844; to RRIRARPPRLPRPRPRPAIPPRP, -0.101.
To RRIRARPPRLPRPRPRPAGEPRP belongs 0.921.
For RRIRQRPPRLPRPRPRPQLNPRP, the “shrunken log2 fold change” value was -0.367.
Next, RRIRARPPRLPRPRPRPVCDPRP: 0.992; RRIRHRPPRLPRPRPRPNRDPRP: -0.0852; RRIRERPPRLPRPRPRPTDEPRP: -0.0552.
To RRIRFRPPRLPRPRPRPCCLPRP belongs -0.725; to RRIRERPPRLPRPRPRPESSPRP, -0.192; to RRIRFRPPRLPRPRPRPNWHPRP, -0.0729.
Next, RRIRDRPPRLPRPRPRPRCNPRP: -0.0439; RRIRDRPPRLPRPRPRPGQCPRP: 0.131.
Turning to RRIRDRPPRLPRPRPRPMPCPRP, the “shrunken log2 fold change” value came out at 0.000981.
Next, RRIRSRPPRLPRPRPRPSHFPRP: -0.182.
In the case of RRIRMRPPRLPRPRPRPVHPPRP, the “shrunken log2 fold change” value is 0.127.
To RRIRSRPPRLPRPRPRPDKHPRP belongs -0.402; to RRIRYRPPRLPRPRPRPIANPRP, -0.0103.
To RRIRIRPPRLPRPRPRPRNEPRP belongs 0.227; to RRIRHRPPRLPRPRPRPQPRPRP, 0.282.
Next, RRIRWRPPRLPRPRPRPLKTPRP: 0.453; RRIRKRPPRLPRPRPRPDRCPRP: 0.00281; RRIRCRPPRLPRPRPRPMFWPRP: -0.327.
RRIRRRPPRLPRPRPRPFPMPRP: the “shrunken log2 fold change” value was 0.0657.
Next, RRIRCRPPRLPRPRPRPDGNPRP: -0.158; RRIRCRPPRLPRPRPRPLGMPRP: -0.433; RRIRFRPPRLPRPRPRPEWIPRP: -0.0219.
Next, RRIRCRPPRLPRPRPRPAQHPRP: 0.0537; RRIRNRPPRLPRPRPRPPLGPRP: 0.331.
In the case of RRIRDRPPRLPRPRPRPRPQPRP, the “shrunken log2 fold change” value was 1.8.
To RRIRHRPPRLPRPRPRPKHAPRP belongs 0.126.
Next, RRIRHRPPRLPRPRPRPVWIPRP: -0.0159.
To RRIRSRPPRLPRPRPRPLKAPRP belongs -0.234; to RRIRLRPPRLPRPRPRPLNAPRP, -0.0775; to RRIRWRPPRLPRPRPRPHHCPRP, -0.239.
As to RRIRDRPPRLPRPRPRPKNIPRP, the “shrunken log2 fold change” value was -0.465.
RRIRLRPPRLPRPRPRPYQQPRP: the “shrunken log2 fold change” value is -0.18.
As to RRIRTRPPRLPRPRPRPDCIPRP, the “shrunken log2 fold change” value is -0.0428.
To RRIRCRPPRLPRPRPRPCYAPRP belongs -0.387; to RRIRGRPPRLPRPRPRPWMDPRP, 0.166.
For RRIRRRPPRLPRPRPRPQNMPRP, the “shrunken log2 fold change” value was -0.472.
Take RRIRFRPPRLPRPRPRPDMPPRP: the “shrunken log2 fold change” value was -0.016.
In the case of RRIRVRPPRLPRPRPRPMNMPRP, the “shrunken log2 fold change” value is -0.426.
Next, RRIRTRPPRLPRPRPRPAKAPRP: -0.0213; RRIRARPPRLPRPRPRPYSHPRP: -0.171.
To RRIRIRPPRLPRPRPRPAYIPRP belongs 0.011; to RRIRWRPPRLPRPRPRPGIMPRP, 0.238.
Next, RRIRRRPPRLPRPRPRPTDVPRP: -0.0348; RRIRPRPPRLPRPRPRPMCWPRP: 0.156.
As for RRIRNRPPRLPRPRPRPDMDPRP, the “shrunken log2 fold change” value was -0.0127.
To RRIRVRPPRLPRPRPRPDYPPRP belongs -0.177.
To RRIRSRPPRLPRPRPRPYRDPRP belongs -0.128.
To RRIRSRPPRLPRPRPRPSQVPRP belongs -0.323; to RRIRERPPRLPRPRPRPQEWPRP, -0.021.
As to RRIRWRPPRLPRPRPRPNCQPRP, the “shrunken log2 fold change” value is -0.14.
Next, RRIRRRPPRLPRPRPRPIAWPRP: 0.0624.
To RRIRVRPPRLPRPRPRPPHVPRP belongs 0.283; to RRIRWRPPRLPRPRPRPFGHPRP, -0.102; to RRIRHRPPRLPRPRPRPGGAPRP, 0.311.
RRIRGRPPRLPRPRPRPSHDPRP: the “shrunken log2 fold change” value was determined as 0.136.
To RRIRDRPPRLPRPRPRPDFPPRP belongs 0.0974; to RRIRIRPPRLPRPRPRPFHTPRP, -0.235.

Source of the values: the supplement of paper PMC9112550, “Optimization of the antimicrobial peptide Bac7 by deep mutational scanning” (BMC Biology, 2022).
